According to paper PMC3107886:

Legend:
[1] = target: soluble HLA-DR1 loaded with A2 peptide (human); assay: SEC
[2] = target: soluble gHgL (gH residue 18-679 and gL residue 24-137) (Epstein-Barr virus) (UniProt P03231); assay: SEC
Chain of UniProt P03231 (P03231 18-679 limits assumed, chain 1 of 2): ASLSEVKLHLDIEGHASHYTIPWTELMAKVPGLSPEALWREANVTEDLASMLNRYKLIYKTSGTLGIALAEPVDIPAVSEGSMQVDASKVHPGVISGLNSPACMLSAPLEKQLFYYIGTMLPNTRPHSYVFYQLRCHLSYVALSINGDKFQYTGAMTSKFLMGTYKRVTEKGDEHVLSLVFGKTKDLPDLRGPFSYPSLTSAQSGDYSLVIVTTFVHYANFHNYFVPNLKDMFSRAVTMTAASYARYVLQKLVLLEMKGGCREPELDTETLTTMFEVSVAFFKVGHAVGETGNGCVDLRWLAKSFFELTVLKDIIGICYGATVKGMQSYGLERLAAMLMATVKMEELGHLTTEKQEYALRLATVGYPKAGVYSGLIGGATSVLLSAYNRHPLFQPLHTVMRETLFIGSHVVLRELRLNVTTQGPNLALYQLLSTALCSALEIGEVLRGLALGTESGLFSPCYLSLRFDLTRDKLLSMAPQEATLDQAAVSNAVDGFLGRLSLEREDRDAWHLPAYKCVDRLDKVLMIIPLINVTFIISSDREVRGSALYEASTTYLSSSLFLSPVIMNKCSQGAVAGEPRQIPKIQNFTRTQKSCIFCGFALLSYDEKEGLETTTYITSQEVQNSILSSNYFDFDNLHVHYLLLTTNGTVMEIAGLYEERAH
Chain of UniProt P03231 (P03212 24-137 limits assumed, chain 2 of 2, further chain): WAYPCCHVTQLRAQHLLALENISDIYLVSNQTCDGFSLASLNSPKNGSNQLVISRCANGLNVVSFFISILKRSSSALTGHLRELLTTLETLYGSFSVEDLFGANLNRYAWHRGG

Substance “soluble gp42 (residue 33-223) (from UniProt P03205 33-223) (domain or fragment)” has a stoichiometry N (gp42 per HLA-DR1) [1] of 1 and a stoichiometry N (gp42 per gHgL) [2] of 1.
